Assay: yeast display, Sf9 membrane polyspecificity reagent, FACS + sequencing; frameworks hold sequencing errors
Summary of the method: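 Galactose induction of a Saccharomyces cerevisiae BJ5465 synthetic nanobody display library ran 36–48 hours. The cells were then stained for 1 hour at 4 °C with 10% biotinylated, detergent-solubilized Sf9 membrane reagent, pulled down on streptavidin microbeads and FACS-sorted into low and high (top ~1%) gates on expression and reagent-binding fluorescence. Labels for polyreactivity follow the gate of origin.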

Row | Sequence | polyreactivity (PSR sort gate)
1 | QVQLVGSGGGLVQAGGSLRLSCAASGRTFDRNTMGWYRQAPGKERELVAAISSSGGSTYYADSVKGRFTISRDNAKNTVYLQMNSLKPEDTAVYYCAVLSRQYFRYGYDYWGQGTQVTVSS | high polyreactivity
2 | QVQLVESGGGLVQAGGSLRLSCAASGSILEIYAMGWYRQAPGKEREVVASISWDVSSTYYADSVKGRFTISRDNAKNTVYLQMNSLKPEDTAVYYCATSLVWGLYDWYYDLSAAFDYWGQGTQVTVSS | low polyreactivity
3 | QVQLVESGGGLVQAGGSLRLSCAASGSTFNGNVMGWYRQAPGKERDFVAGISKSGGTTYYADSVKGRFTISRDNAKNTVYLQMNSLKPEDTAVYYCAARGRVRYYPQYYYWGQGTQVTVSS | high polyreactivity
4 | QVQLVESGGGLVQAGGSLRLSCAASGSILNFYAMGWYRQAPGKERELVAAISSGGSTNYADSVKGRFTISRDNAKNTVYLQMNSLKPEDTAVYYCAATGGDRYEAYYYWGQGTQVTVSS | low polyreactivity
5 | EVQLVESGGGLVQAGGSLRLSCAASGRIFVHYAMGWYRQAPGKERELVAAITSGSSTNYADSVKGRFTISRDNAKNTVYLQMNSLKPEDTAVYYCAADYSVHRVRDRWFDYWGQGTQVTVSS | low polyreactivity
6 | QVQLVESGGGLVQAGGSLRLSCAASGSIFVWYAMGWYRQAPGKERELVARITSGGRTNYADSVKGRFTISRDNAKNTVYLQMNSLKPEDTAVYYCAAGRVSWSAYYYWGQGSQVTVSS | high polyreactivity
7 | QVQLVESGGGLVQAGGSLRLSSAASGLTFPIYAMVWYTQAPGKEREFVAVITTSGGSTYYADSVKGRFTISRDNAKNTVFLQMNSLKPEDTSVYYCNARRIRHYYWGQGTQVTVSS | high polyreactivity
8 | QVQLVESGGGLVQAGGSLRLSCAASGSTFAVYAMGWYRQAPGKERELVAAITWSGGSTYYADSVKGRFTISRDNAKNTVYLQMNSLKPEDTAVYYCAATLIYHYWQLFIISTMGYWGQGTQVTVSS | low polyreactivity
9 | QVQLVESGGGLVQAGGSLRLSCAASGRTFDRYDMGWYRQAPGKERELVATISSSGGSTYYADSVKGRFTISRDNAKNTVYLQMNSLKPEDTAVYYCAADPSGDYWGQGTQVTVSS | low polyreactivity
10 | QVQLVESVGGLVQAGGSLRLSCAASGSTFVIYAMGWYRQAHGKERELVAAISGRTGSTYYADSVKGRFTISRDNAKNTVYLQMNSLKPEDTAVYYCAAYKRSGLKYGHWGQGTQVTVSS | high polyreactivity
11 | QVQLVESGGGLVQAGGSLRLSCAASGSSFVRNGMGWYRQAPGKERELVASIRGSGSRTYYADSVKGRFTISRDNAKNTVYLQMNSLKPEDTAVYYCAAGYWRYYHYPPASGYWGQGTQVTVSS | high polyreactivity
12 | QVQLVESGGGLVQAGGSLRLSCAASGSTFVIYGKGWYRQAPGKERELVASISGSGGSTFYADSVKGRFTISRDNAKITVYLEMNSRKPEDTAVYYCAAAVGVGRSGGTYDYWGQGTQVTVSS | low polyreactivity
13 | QVQLVESGGGLVQAGGSLRLSCAASGFTFVGYAMGWYRQAPGKERELVAAISSSGVSTYYADSVKGRFTISRDNAKNTVYLQMNSLKPEDTAVYYCNRVSVYRSSHLLWGGYWGQGTQVTVSS | low polyreactivity
14 | QVQLVESGGGLVQAGGSLRLSCAASGSIFRPNTMGWYRQATGKERELVADIRYRGGGTYYADSVKGRFTITRDNATNTVYLQMNSLKPEDTAVYYCAKASAQWVQFDFWGQGNQVTVSS | high polyreactivity
15 | QVQLVESGGGLVQAGGSLRLSCAASGLTFSKNVMGWYRQAPGKERELVAAISGITSSTYYADSVKGRFTISRDNAKNTVYLQMNSLKPEDTAVYYCAADLSFSRPGRFGYWGQGTQVTVSS | high polyreactivity
16 | QVQLVESGGGLVQAGGSLRLSCAASGNTFVPYAMGWYRQAPGKERELVAAITFSAGRTYYADSVKGRFTISRDNAKNTVYLQMNSLKPEDTAVYYCNVYWYNNYRGYYYWGQGTQVTVSS | high polyreactivity
17 | QVQLVESGGGLVQAGGSLRLSCAASGSIFRWYAMGWYRQAPGKERELVAAISTSGGNTYYADSVKGRFTISRDNAKNTVYLQMNSLKPEDTAVYYCNALWYRSLSYRYDYWGQGTQVTVSS | high polyreactivity
18 | QVQLVESGGRLVQAGGSLRVSCAASGSTFLFYAMVWYRQAPGKERELVATISRGGSTYYADSVKGRFTISRDNAKNTVYLQMNSQIPEDTAVYYCAARATRVTIAPRYGYWGQGTQVTVSS | low polyreactivity
19 | QVQLVESAGGLVQAGGSLRLSCAATGSTVDRNGMGWYRQAPGKERELVASISGRGGSTYYADSVKGRFTISRDHAKNTVYLQMNRLKPEDTAVYYCAVRYGFFSRYNSWGQGTQVTVSS | high polyreactivity
20 | QVQLVESGGGLVQAGGSLRLSCAASGSIFPPYAMGWYRQAPGKERELVAAIRRGSSTYYADSVKGRFTISRDNAKNTVYLQMNSLKPEDTAVYYCAARGRYRIGPGRYGKRYDYWGQGTQVTVSS | high polyreactivity
21 | QVQLVESGGGLVQAGGSLRLSCAASGRICPGYVMGRYRQAPGKERELVAAITSTGRTYYADSVKGRFTISRDNEKKTVYLQMNSLKPEDTAVYYCAAVRSYYRGYDYWGQGTQVTVSS | high polyreactivity

Row | Sequence | polyreactivity (PSR sort gate)
22 | QVQLVESGGGLVQAGGSLRLSCAASGFIFYAYAMGWYRQAPGKERELVAAITGSGGRTYYADSVKGRFTISRDNAKNTVYLQMNSLKPEDTAVYYCAAYYTSGGSRTYDYWGQGTQVTVSS | high polyreactivity
23 | QVQLVESGGGLVQAGGSLRLICAASGFTFSYNAMGWYRPAPGTERELVAVITKSGGSTNYADSVKGRFTISRDNAKNTVYLQRNSLKPEDTAVYYCNRQIKKLLTTHYYWGQGTQVTVSS | high polyreactivity
24 | QVQLVESGGGLVQAGGSLRLSSAASGSILPYYAMGWYRQAPGKESELVATITSRGGSTYYADSVKGRFTISRDNAKNTVYLQMNSLKPEDTAVYYCAKEYRYYRRRYDYCGQGTQVTVSS | high polyreactivity
25 | QVQLVESGGGLVQAGGSLRLSCAASGLILTRYAMGWYRQAPGKERELVAAITKNGGSTYYADSVKGRFTISRDNAKNTVYLLMNSLKPEDTAVYYCNVCPRRVDRSRAASSDYDYWGQGSQVTVSS | high polyreactivity
26 | QVQLVESGGGLVQAGGSLRLSCAASGSIFGEYAMGWYRQAPGKERELVAGITSDGSTNYADSVKGRFTISRDNAKNTVYLQMNSLKQEDTAVYYCAAAGYVYHWAPRGSRYYYWGQGTQVTVSS | low polyreactivity
27 | QVQLVESGGGLVQAGGSLRLSCAASGSTFFDYAMGWYRQAPGKERELVAAISRSGDTNYADSVKGRFTISRDNAKNTVYLQMNSLKPEDTAVYYCAKDWAYRRHWVGFYYWGQGTQVTVSS | low polyreactivity
28 | QVQHVESGGRLVQAVGSLRLSCAASGFTFTRHAMGWYRQAPGKERDLVSRISSRGGSTYYADSVKGRFTISRDNAKNTVYLQMNSLKPEDTAVFYCAAPVRKSSYTRYDSWGQGTQVTVSS | high polyreactivity
29 | QVQLVESGGGLVQAGASLRLSCAASGSIFYHNTMGWYRQAPGKERELITYYADSVKRRFTISRDNAKNTVYLQMNSLKPEDTAVYYCAASPVYRTGPGDYDYWGQGTQVTVSS | low polyreactivity
30 | QVQLVESGGGLDQAGGSLRLSCAASGRIFTANVMGWYRQAPGKERELVAAIDYSGGSTYYADSVKGRFTISRDNAKNTVYLQMNSLKPEDTAVYSCNRDDYADYYHLEYDYWGQGTQVTVSS | low polyreactivity
31 | QFQLVESGGGLVQARGSLRLSCAASGSIFDLNAMGWYRPAPGKERELVAAISSGGGTYYADSVKGRFTISRDNAKNTVYFQMYSLKPDDSAVYYCAAGKSSPRRIFEYWGQGTEVTVSS | high polyreactivity
32 | QVQLVESGGGLVQAGGSLRLSCAASGLTFSIYAMGWYRQEPGKERELVARITWNSGSTYYADSVKGRFTISRDNAKNTVYLQMNSLKPEDTAVYYCNARFWGSGVGDLWEGVRYDYWGQGTQVTVSS | high polyreactivity
33 | QVQLVESGGGLVQAGGSLRLSSAASGFIFRGYAMGWYRQAPGKERELVAVISRSGTSTYYADSVKGRFTFSRDNAKNTVYLQMNSLKPEDTAVYYCAVLNYAGKYYYWGQGTQVTVSS | high polyreactivity
34 | QVQLVESGGGLVQAGGSLRLSCAASGSIFQLNAMGWYRQAPGKERELDAAITSGGSTYYADSVKGRFTISRDNAKNTVYLQMNSLKPEDTAVYYCAAYYLYTTPTSEWLSGYDYWGQGTQVTVSS | low polyreactivity
35 | QVQLVESGGGLVQAGGSLRLSCAASGFTFVWYVMGWYRQAPGKEREFVAAITSTGGNTNYADSVKGRFTISRDNAKNTVYLEMNSLKPEDTAVYYCAKRYGFPPGYYYWGQGTQVTVSS | low polyreactivity
36 | QVQLVESGGGLVQAGGSLRLSCAASGRTFPAYAMGWYRQAPGKERELVAAISSGTSTYADSVKGRFTISRDNAKNTVYLQMNSLKPEDTAVYYCAAGYDRVHSVAGYDYWGQGTQVTVSS | low polyreactivity
37 | QVQLVESGGGLVQAGGSLRLSCAASGFIVNVYAMVWYRQAPGKERELVAAISTSGSNTYYADSVKGRFTISLDNAKNTVYLQMNSLKPEDTAVYYCNAVRDRVRWHYYAVYYWGQGTQVTVSS | high polyreactivity
38 | QVQLVESGGGLVQAGGSLRLSCAASGRIFGHYAMGWYRQAPGKERELVAAISQSGTNTYYADSVKGRFTISRDNAKNTVYLQMNSLKPEDTAVYYCAAKPPRRYQLMDYWGQGTQVTVSS | high polyreactivity
39 | QVQLVESGGGLVQAGGSLRLSCAASGLIFNLYAIGWNRQAPGKEREFVATITGIGGSTYYADSVKGRFTISRDNAMNTVYFQMNSLKPEDTAVYYCAADAWFLPYNYWGQGTQVTVSS | low polyreactivity
40 | QVQLVESGGGLVQAGGSLRLSCAASGFTYRTYAMGWYRQAPGKERELVAAITVSGGTYYADSVKGRFTISRDNAKNTVYFQMNSLKPEDTAVYYCTAKRFRTGFDYWGQGTQVTVSS | low polyreactivity
41 | QVQLVESGGGLVQAGGSLRLSCAASGRIVRNAMGWYRQSPGKERELVAAISRSGGSTYYADSVKGRFTISRDNAKNTVYLQMNSLKPEDTAVYYCAKRSTSQSLQGEYWGQGTQVTVSS | high polyreactivity
